Data: patent publication US20080305997A1 (UNIVERSITY OF NORTH CAROLINA AT CHARLOTTE, published 2008)

How the values were obtained:
[1] = biological target: T1, sCD4-HRP (Research Diagnostics Inc.) (UniProt P01730 26-396, limits assumed); assay: microtiter assay, increasing concentrations of plate-bound P11, sCD4-HRP, non-linear curve fit
T1 construct: extracellular domain

[2] = biological target: T1, sCD4-HRP (Research Diagnostics Inc.); assay: microtiter competition; free P11 added to sCD4-HRP on plate-bound P11
Experimental: Purified sCD4 was coated overnight at 4° C. at the indicated concentrations in 0.1M sodium carbonate buffer (pH 9.5) in 96 well plates. Equimolar amounts of lysozyme were used as a non-specific control. […] The reaction was stopped by adding TMB stop solution (KPL). […] The wells were washed and blocked prior to incubation with sCD4-HRP (Research Diagnostics Inc., Flanders, N.J., U.S.A.).

[3] = biological target: T1, sCD4-HRP (Research Diagnostics Inc.); assay: microtiter assay, plate-bound peptide, sCD4-HRP

B1: P11, C-terminal peptide of Salp15 (amino acids 95-114) (peptide)
peptide: GPNGQTCAEKNKCVGHIPGC
notes: Chemically synthesized (GenScript); also called P11k
Kd [1]: 50 nM
IC50 [2]: 1250 nM

B2: P6, overlapping synthetic peptide of Salp15 (amino acids 51-70) (peptide)
peptide: HNSLSSRSSDVINDKYVDFK
notes: Chemically synthesized (GenScript); coated on the plate
binding result [3]: no binding (tested: 0.5 µg peptide coated)

B3: P7, overlapping synthetic peptide of Salp15 (amino acids 61-80) (peptide)
peptide: VINDKYVDFKNCTFLCKHGN
notes: as for B2
binding result [3]: no binding (tested: 0.5 µg peptide coated)

NCTFLCKHGNDVNVTLNLPE (Chemically synthesized (GenScript)) [P8, overlapping synthetic peptide of Salp15 (amino acids 71-90)]
binding result [3]: no binding (tested: 0.5 µg peptide coated)

B4: P9, overlapping synthetic peptide of Salp15 (amino acids 81-100) (peptide)
peptide: DVNVTLNLPEDTPCGPNGQT
notes: as for B2
binding result [3]: no binding (tested: 0.5 µg peptide coated)

B5: P10, overlapping synthetic peptide of Salp15 (amino acids 91-110) (peptide)
peptide: DTPCGPNGQTCAEKNKCVGH
notes: as for B2
binding result [3]: no binding (tested: 0.5 µg peptide coated)

B6: P1, overlapping synthetic peptide of Salp15 (amino acids 1-20) (peptide)
peptide: NESGPTKADASTADKDTKKN
notes: as for B2
binding result [3]: no binding (tested: 0.5 µg peptide coated)

B7: P2, overlapping synthetic peptide of Salp15 (amino acids 11-30) (peptide)
peptide: STADKDTKKNNVQLRFPNYI
notes: as for B2
binding result [3]: no binding (tested: 0.5 µg peptide coated)

B8: P3, overlapping synthetic peptide of Salp15 (amino acids 21-40) (peptide)
peptide: NVQLRFPNYISNHQKLALKL
notes: as for B2
binding result [3]: no binding (tested: 0.5 µg peptide coated)

B9: P4, overlapping synthetic peptide of Salp15 (amino acids 31-50) (peptide)
peptide: SNHQKLALKLLKICKDSKSS
notes: as for B2
binding result [3]: no binding (tested: 0.5 µg peptide coated)

B10: P5, overlapping synthetic peptide of Salp15 (amino acids 41-60) (peptide)
peptide: LKICKDSKSSHNSLSSRSSD
notes: as for B2
binding result [3]: no binding (tested: 0.5 µg peptide coated)
